Measured values from IntAct's records for PubMed 32852592.

B1: Mitogen-activated protein kinase 13 (Homo sapiens), O15264 (parent)
chain: MSLIRKKGFYKQDVNKTAWELPKTYVSPTHVGSGAYGSVCSAIDKRSGEKVAIKKLSRPFQSEIFAKRAYRELLLLKHMQHENVIGLLDVFTPASSLRNFYDFYLVMPFMQTDLQKIMGMEFSEEKIQYLVYQMLKGLKYIHSAGVVHRDLKPGNLAVNEDCELKILDFGLARHADAEMTGYVVTRWYRAPEVILSWMHYNQTVDIWSVGCIMAEMLTGKTLFKGKDYLDQLTQILKVTGVPGTEFVQKLNDKAAKSYIQSLPQTPRKDFTQLFPRASPQAADLLEKMLELDVDKRLTAAQALTHPFFEPFRDPEEETEAQQPFDDSLEHEKLTVDEWKQHIYKEIVNFSPIARKDSRRRSGMKL

Variants of: B1
Conditions: with stat3_human STAT3, P40763
stat3_human STAT3, P40763, sequence (P40763 whole entry): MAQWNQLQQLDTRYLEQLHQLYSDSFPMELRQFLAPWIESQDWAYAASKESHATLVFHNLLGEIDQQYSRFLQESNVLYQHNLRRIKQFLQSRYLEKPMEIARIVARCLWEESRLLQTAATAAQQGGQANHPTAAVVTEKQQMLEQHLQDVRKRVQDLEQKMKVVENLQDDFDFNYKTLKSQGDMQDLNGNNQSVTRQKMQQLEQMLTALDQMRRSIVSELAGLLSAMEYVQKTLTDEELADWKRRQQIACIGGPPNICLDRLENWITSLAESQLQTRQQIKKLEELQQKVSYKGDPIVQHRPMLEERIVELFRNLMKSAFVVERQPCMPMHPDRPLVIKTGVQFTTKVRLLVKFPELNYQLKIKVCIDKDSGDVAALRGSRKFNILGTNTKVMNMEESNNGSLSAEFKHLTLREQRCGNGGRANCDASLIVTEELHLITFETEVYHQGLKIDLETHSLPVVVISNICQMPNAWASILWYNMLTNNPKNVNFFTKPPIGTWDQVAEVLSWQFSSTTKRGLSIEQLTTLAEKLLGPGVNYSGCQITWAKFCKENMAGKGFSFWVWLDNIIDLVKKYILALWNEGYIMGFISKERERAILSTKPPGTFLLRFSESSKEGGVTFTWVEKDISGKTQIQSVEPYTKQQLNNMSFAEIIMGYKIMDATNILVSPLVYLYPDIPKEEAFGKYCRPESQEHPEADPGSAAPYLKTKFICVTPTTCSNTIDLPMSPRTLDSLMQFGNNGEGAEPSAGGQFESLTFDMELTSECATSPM

effect of a mutation on the interaction	Variant
with no effect	T180A;Y182A
